Sequences and labels used below:
B1: Isobutanoyl-[Abu26, Cha27,28,36, Pya(3)31]-PYY(25-36) (peptide)
peptide: Isobutyryl-R[Abu][Cha][Cha]NL[3Pal]TRQR[Cha]-NH2
SMILES: CC[C@H](NC(=O)[C@H](CCCNC(=N)N)NC(=O)C(C)C)C(=O)N[C@@H](CC1CCCCC1)C(=O)N[C@@H](CC1CCCCC1)C(=O)N[C@@H](CC(N)=O)C(=O)N[C@@H](CC(C)C)C(=O)N[C@@H](Cc1cccnc1)C(=O)N[C@H](C(=O)N[C@@H](CCCNC(=N)N)C(=O)N[C@@H](CCC(N)=O)C(=O)N[C@@H](CCCNC(=N)N)C(=O)N[C@@H](CC1CCCCC1)C(N)=O)[C@@H](C)O
B2: Isobutanoyl-[Abu26, Cha27,36, Phe(4F)28, Aib31]-PYY(25-36) (peptide)
peptide: Isobutyryl-R[Abu][Cha][Phe(4-F)]NL[Aib]TRQR[Cha]-NH2
SMILES: CC[C@H](NC(=O)[C@H](CCCNC(=N)N)NC(=O)C(C)C)C(=O)N[C@@H](CC1CCCCC1)C(=O)N[C@@H](Cc1ccc(F)cc1)C(=O)N[C@@H](CC(N)=O)C(=O)N[C@@H](CC(C)C)C(=O)NC(C)(C)C(=O)N[C@H](C(=O)N[C@@H](CCCNC(=N)N)C(=O)N[C@@H](CCC(N)=O)C(=O)N[C@@H](CCCNC(=N)N)C(=O)N[C@@H](CC1CCCCC1)C(N)=O)[C@@H](C)O
B3: Isobutanoyl-[Abu26, Cha27,28,36, Ala(cPr)30, Aib31]-PYY(25-36) (peptide)
peptide: Isobutyryl-R[Abu][Cha][Cha]N[Ala(cPr)][Aib]TRQR[Cha]-NH2
SMILES: CC[C@H](NC(=O)[C@H](CCCNC(=N)N)NC(=O)C(C)C)C(=O)N[C@@H](CC1CCCCC1)C(=O)N[C@@H](CC1CCCCC1)C(=O)N[C@@H](CC(N)=O)C(=O)N[C@@H](CC1CC1)C(=O)NC(C)(C)C(=O)N[C@H](C(=O)N[C@@H](CCCNC(=N)N)C(=O)N[C@@H](CCC(N)=O)C(=O)N[C@@H](CCCNC(=N)N)C(=O)N[C@@H](CC1CCCCC1)C(N)=O)[C@@H](C)O
B4: [D-Ser23, Abu26, Cha27,28,36, Aib31]-PYY(23-36) (peptide)
peptide: [dS]LR[Abu][Cha][Cha]NL[Aib]TRQR[Cha]-NH2
modifications: N-terminus assumed
SMILES: CC[C@H](NC(=O)[C@H](CCCNC(=N)N)NC(=O)[C@H](CC(C)C)NC(=O)[C@H](N)CO)C(=O)N[C@@H](CC1CCCCC1)C(=O)N[C@@H](CC1CCCCC1)C(=O)N[C@@H](CC(N)=O)C(=O)N[C@@H](CC(C)C)C(=O)NC(C)(C)C(=O)N[C@H](C(=O)N[C@@H](CCCNC(=N)N)C(=O)N[C@@H](CCC(N)=O)C(=O)N[C@@H](CCCNC(=N)N)C(=O)N[C@@H](CC1CCCCC1)C(N)=O)[C@@H](C)O
B5: Ac-[D-Cha24, Abu26, Cha27,28,36, Aib31]-PYY(24-36) (peptide)
peptide: Ac-[dCha]R[Abu][Cha][Cha]NL[Aib]TRQR[Cha]-NH2
SMILES: CC[C@H](NC(=O)[C@H](CCCNC(=N)N)NC(=O)[C@@H](CC1CCCCC1)NC(C)=O)C(=O)N[C@@H](CC1CCCCC1)C(=O)N[C@@H](CC1CCCCC1)C(=O)N[C@@H](CC(N)=O)C(=O)N[C@@H](CC(C)C)C(=O)NC(C)(C)C(=O)N[C@H](C(=O)N[C@@H](CCCNC(=N)N)C(=O)N[C@@H](CCC(N)=O)C(=O)N[C@@H](CCCNC(=N)N)C(=O)N[C@@H](CC1CCCCC1)C(N)=O)[C@@H](C)O
B6: Cyclohexanecarbonyl-[Nle26, Cha27,28,36, Aib31]-PYY(25-36) (peptide)
peptide: Cyclohexanecarbonyl-R[Nle][Cha][Cha]NL[Aib]TRQR[Cha]-NH2
SMILES: CCCC[C@H](NC(=O)[C@H](CCCNC(=N)N)NC(=O)C1CCCCC1)C(=O)N[C@@H](CC1CCCCC1)C(=O)N[C@@H](CC1CCCCC1)C(=O)N[C@@H](CC(N)=O)C(=O)N[C@@H](CC(C)C)C(=O)NC(C)(C)C(=O)N[C@H](C(=O)N[C@@H](CCCNC(=N)N)C(=O)N[C@@H](CCC(N)=O)C(=O)N[C@@H](CCCNC(=N)N)C(=O)N[C@@H](CC1CCCCC1)C(N)=O)[C@@H](C)O
B7: Cyclohexanecarbonyl-[Cha27,36, Ala(cPr)28, Aib31]-PYY(25-36) (peptide)
peptide: Cyclohexanecarbonyl-RH[Cha][Ala(cPr)]NL[Aib]TRQR[Cha]-NH2
SMILES: CC(C)C[C@H](NC(=O)[C@H](CC(N)=O)NC(=O)[C@H](CC1CC1)NC(=O)[C@H](CC1CCCCC1)NC(=O)[C@H](Cc1c[nH]cn1)NC(=O)[C@H](CCCNC(=N)N)NC(=O)C1CCCCC1)C(=O)NC(C)(C)C(=O)N[C@H](C(=O)N[C@@H](CCCNC(=N)N)C(=O)N[C@@H](CCC(N)=O)C(=O)N[C@@H](CCCNC(=N)N)C(=O)N[C@@H](CC1CCCCC1)C(N)=O)[C@@H](C)O
B8: Isobutanoyl-[Abu26, Cha27,28,36, Leu(Me)30, Aib31]-PYY(25-36) (peptide)
peptide: Isobutyryl-R[Abu][Cha][Cha]N[tBuAla][Aib]TRQR[Cha]-NH2
SMILES: CC[C@H](NC(=O)[C@H](CCCNC(=N)N)NC(=O)C(C)C)C(=O)N[C@@H](CC1CCCCC1)C(=O)N[C@@H](CC1CCCCC1)C(=O)N[C@@H](CC(N)=O)C(=O)N[C@@H](CC(C)(C)C)C(=O)NC(C)(C)C(=O)N[C@H](C(=O)N[C@@H](CCCNC(=N)N)C(=O)N[C@@H](CCC(N)=O)C(=O)N[C@@H](CCCNC(=N)N)C(=O)N[C@@H](CC1CCCCC1)C(N)=O)[C@@H](C)O
B9: Isobutanoyl-[Abu26, Cha27,36, Pya(4)28, Aib31]-PYY(25-36) (peptide)
peptide: Isobutyryl-R[Abu][Cha][4Pal]NL[Aib]TRQR[Cha]-NH2
SMILES: CC[C@H](NC(=O)[C@H](CCCNC(=N)N)NC(=O)C(C)C)C(=O)N[C@@H](CC1CCCCC1)C(=O)N[C@@H](Cc1ccncc1)C(=O)N[C@@H](CC(N)=O)C(=O)N[C@@H](CC(C)C)C(=O)NC(C)(C)C(=O)N[C@H](C(=O)N[C@@H](CCCNC(=N)N)C(=O)N[C@@H](CCC(N)=O)C(=O)N[C@@H](CCCNC(=N)N)C(=O)N[C@@H](CC1CCCCC1)C(N)=O)[C@@H](C)O
B10: 4-Guanidinomethylbenzoyl-[Nle25, Cha27,28,31,36, Arg30]-PYY(25-36) (peptide)
peptide: {4‑guanidinomethylbenzoyl}-[Nle]H[Cha][Cha]NR[Cha]TRQR[Cha]-NH2
SMILES: CCCC[C@H](NC(=O)c1ccc(CNC(=N)N)cc1)C(=O)N[C@@H](Cc1c[nH]cn1)C(=O)N[C@@H](CC1CCCCC1)C(=O)N[C@@H](CC1CCCCC1)C(=O)N[C@@H](CC(N)=O)C(=O)N[C@@H](CCCNC(=N)N)C(=O)N[C@@H](CC1CCCCC1)C(=O)N[C@H](C(=O)N[C@@H](CCCNC(=N)N)C(=O)N[C@@H](CCC(N)=O)C(=O)N[C@@H](CCCNC(=N)N)C(=O)N[C@@H](CC1CCCCC1)C(N)=O)[C@@H](C)O

Non-standard residues stand in square brackets, D forms with d. No end group written: not given here. *: point of attachment. 4‑guanidinomethylbenzoyl = N=C(N)NCc1ccc(C(=O)*)cc1; Phe(4-F) = N[C@@H](Cc1ccc(F)cc1)C(=O)O; Cyclohexanecarbonyl = O=C(C1CCCCC1)*; Ala(cPr) = N[C@@H](CC1CC1)C(=O)O; tBuAla = CC(C)(C)C[C@H](N)C(=O)O; 3Pal = N[C@@H](Cc1cccnc1)C(=O)O; 4Pal = N[C@@H](Cc1ccncc1)C(=O)O; Cha = N[C@@H](CC1CCCCC1)C(=O)O; dCha = N[C@H](CC1CCCCC1)C(=O)O; Isobutyryl = CC(C)C(=O)*; Nle = CCCC[C@H](N)C(=O)O; Abu = CC[C@H](N)C(=O)O; Aib = CC(C)(N)C(=O)O

The values below come from patent US20120172293A1 (Takeda / Millennium, published 2012).

human Y2 receptor (human), sequence (P49146 whole entry): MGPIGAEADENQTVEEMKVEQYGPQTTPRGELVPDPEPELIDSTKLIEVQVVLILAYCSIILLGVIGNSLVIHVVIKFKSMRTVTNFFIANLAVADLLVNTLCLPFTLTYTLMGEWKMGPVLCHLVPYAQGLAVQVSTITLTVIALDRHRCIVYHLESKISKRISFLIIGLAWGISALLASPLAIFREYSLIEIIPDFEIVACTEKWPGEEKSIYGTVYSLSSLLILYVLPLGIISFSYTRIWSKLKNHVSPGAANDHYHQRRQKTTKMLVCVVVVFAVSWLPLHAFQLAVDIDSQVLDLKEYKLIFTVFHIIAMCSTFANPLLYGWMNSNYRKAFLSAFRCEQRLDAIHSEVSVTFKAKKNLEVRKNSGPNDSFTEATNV

The first test addresses human Y2 receptor (human) (UniProt P49146). The test is described as follows: cell-based or functional assay.
As for B1, the GBA EC50 Ratio (vs PYY(3-36)), [35S]GTPγS was determined as 19.

As to B2, the GBA EC50 Ratio (vs PYY(3-36)), [35S]GTPγS worked out at 20.

Turning to B3, the GBA EC50 Ratio (vs PYY(3-36)), [35S]GTPγS was determined as 12.

Turning to B4, the GBA EC50 Ratio (vs PYY(3-36)), [35S]GTPγS was 11.

As to B5, the GBA EC50 Ratio (vs PYY(3-36)), [35S]GTPγS worked out at 13.

In the case of B6, the GBA EC50 Ratio (vs PYY(3-36)), [35S]GTPγS was determined as 33.

As for B7, the GBA EC50 Ratio (vs PYY(3-36)), [35S]GTPγS was determined as 23.

For the molecule B8, the GBA EC50 Ratio (vs PYY(3-36)), [35S]GTPγS was determined as 26.

For B9, the GBA EC50 Ratio (vs PYY(3-36)), [35S]GTPγS was 22.

Regarding B10, the GBA EC50 Ratio (vs PYY(3-36)), [35S]GTPγS worked out at 4.5.

A further test has the same target. Briefly: RBA: [125I]-PYY displacement, hY2R/CHO membranes.
B1: the IC50 Ratio (vs PYY(3-36)) was 25.

Consider B2, for which the IC50 Ratio (vs PYY(3-36)) came to 23.

On to B3, for which the IC50 Ratio (vs PYY(3-36)) worked out at 17.

As for B4, the IC50 Ratio (vs PYY(3-36)) was 15.

B5: the IC50 Ratio (vs PYY(3-36)) amounted to 15.

B6: the IC50 Ratio (vs PYY(3-36)) is 50.

For B7, the IC50 Ratio (vs PYY(3-36)) was 15.

Turning to B8, the IC50 Ratio (vs PYY(3-36)) amounted to 51.

Turning to B9, the IC50 Ratio (vs PYY(3-36)) came out at 26.

As for B10, the IC50 Ratio (vs PYY(3-36)) is 7.2.
